{
  "source": "paper PMC2686167",
  "about": "“Structure of Human DNA Polymerase κ Inserting dATP Opposite an 8-OxoG DNA Lesion”",
  "target": "T1, DNA polymerase kappa catalytic core (Polκ19-526) (Homo sapiens, UniProt Q9UBT6 19-526)",
  "T1 sequence": "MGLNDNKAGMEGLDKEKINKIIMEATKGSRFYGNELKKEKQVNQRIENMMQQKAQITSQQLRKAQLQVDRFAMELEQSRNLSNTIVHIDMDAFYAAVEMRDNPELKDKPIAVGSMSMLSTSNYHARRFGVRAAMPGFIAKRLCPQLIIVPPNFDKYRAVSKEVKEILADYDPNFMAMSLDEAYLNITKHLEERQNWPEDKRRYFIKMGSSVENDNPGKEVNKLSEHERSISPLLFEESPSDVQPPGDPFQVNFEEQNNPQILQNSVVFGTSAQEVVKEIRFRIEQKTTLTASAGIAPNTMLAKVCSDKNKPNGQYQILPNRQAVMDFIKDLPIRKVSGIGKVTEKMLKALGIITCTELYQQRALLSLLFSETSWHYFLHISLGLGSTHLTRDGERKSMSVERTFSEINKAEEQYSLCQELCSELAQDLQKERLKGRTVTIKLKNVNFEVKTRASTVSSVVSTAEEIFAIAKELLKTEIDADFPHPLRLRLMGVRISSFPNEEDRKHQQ",
  "assay": "X-ray crystallography (3.2 Å); dATP, Mg2+ (ternary complex); Crystal structure only; cocrystallization conditions not in the material",
  "conditions": "protein: recombinant; tags: N-terminal GST removed with PreScission protease; 5' overhang 5 nt on template; recessed 3' primer end",
  "data": [
    {"binder": "13-nt/18-nt primer/template with 8-oxoG (dsDNA, template G5 = 7,8-dihydro-8-oxoguanine; primer 3' terminal C = dideoxycytidine) DNA 1: CCTAGGAGTCCTTCCCCC DNA 2: GGGGGAAGGACTC", "values": [
      {"measurement": "binding result", "value": "binds"}
    ]}
  ]
}
